Patent US20240108702A1, “Use Of Naturally Occurring Cyclic Peptides For Treatment Of SARS-COV-2 Infection” (The University of Southern California, priority 2021, published 2024)
Values joined by “and” are separate entries in the source; they are usually repeats but may differ in a detail not shown here. Equal values may be shown once. “Also recorded” adds a separate entry of the source. Where no end group is shown, it is not given here. [ ]: non-standard residue; d: D form. 14C‑Gly = 14C labelled glycine

Columns and labels:
SARS-CoV-2 = experiment: Antiviral assay, SARS-CoV-2 replication in Calu3 2B4 cells (RT-qPCR); assay type: cell-based; conditions: 24 h
TMPRSS2 [1] = target: T1, TMPRSS2 (Homo sapiens, UniProt O15393); experiment: Cellular TMPRSS2 inhibition assay in Caco-2 cells; assay type: cell-based; parameters: using Caco-2 and Calu3 cells, both of which express surface TMPRSS2; endogenous in cells; host or cells: Caco-2 cells
T1 sequence (O15393 whole entry): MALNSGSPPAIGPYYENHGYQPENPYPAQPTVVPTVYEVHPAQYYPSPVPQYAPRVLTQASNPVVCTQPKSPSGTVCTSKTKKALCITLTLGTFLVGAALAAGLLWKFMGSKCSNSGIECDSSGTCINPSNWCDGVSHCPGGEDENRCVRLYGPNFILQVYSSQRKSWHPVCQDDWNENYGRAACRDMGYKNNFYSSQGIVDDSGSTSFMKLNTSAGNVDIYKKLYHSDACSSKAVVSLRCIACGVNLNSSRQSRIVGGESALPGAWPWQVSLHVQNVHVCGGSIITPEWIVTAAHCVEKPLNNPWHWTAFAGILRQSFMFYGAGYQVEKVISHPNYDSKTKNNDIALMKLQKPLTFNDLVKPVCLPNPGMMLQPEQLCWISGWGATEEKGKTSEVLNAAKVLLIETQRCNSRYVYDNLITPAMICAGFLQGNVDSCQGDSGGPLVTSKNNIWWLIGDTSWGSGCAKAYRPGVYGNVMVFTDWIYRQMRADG
Method: Caco-2 cells (1×10^5 per well) were incubated in 96 well plates with 0 to 50 μg/ml of the indicated peptide in the presence of a TMPRSS2 substrate (Boc-Leu-Gly-Arg-AMC) in 50 mM Tris-HCl, pH 7.4. Substrate conversion was monitored in a fluorescence plate reader for 2 hours and inhibition of enzyme activity was expressed relative to a solvent control.
(§1) TMPRSS2 inhibition assays. Peptides (0-50 μg/ml) were tested for their inhibitory activities against TMPRSS2 in cellular assays using Vero E6 cells, Caco-2 cells, or Calu-3 cells using standard conditions. TMPRSS2 activity was assayed in real time for 120 min by monitoring the cleavage of the TMPRSS2 substrate, Boc-Leu-Gly-Arg-AMC. Following the 2 h enzyme assay, cells were evaluated for viability using the CellTiter-Glo cellular toxicity assay.

[2] = Biodistribution of 14C-radiolabeled Peptide 1 in female rats; assay type: in vivo, SD rats
Method: Biodistribution [^14C]-radiolabeled Peptide 1 (SEQ ID NO. 1) in female rats: Five SD rats (195 and 200 g b.w.) with jugular vein catheters (JVC) were each injected with 200 μL of 5 mg/mL Peptide 1 (SEQ ID NO. 1) in saline containing ˜4 million CPM of [^14C]-Peptide 1. The ^14C-Peptide 1 (SEQ ID NO. 1) was created by substituting the natural glycine residue on position 1 of the cyclic peptide with a ^14C labeled glycine. The JVC line was cleaned with 70% isopropyl alcohol, and the line plug was removed. A new 25 G blunt needle with a 1 mL syringe containing injectable solutions was used for each injection. The JVC line was first cleared with 100 μL saline, followed by the Peptide 1 (SEQ ID NO. 1) solution, then cleared with an additional 100 μL of saline. Tissues and organs were harvested into separated vials and weighed. Small organs such as lymph nodes, kidneys, and heart/lungs were processed whole. Large organs (e.g., liver, muscles, subcutaneous fat pads) were sampled from representative areas or those of interest (e.g., subcutis at the injection site). Organs were then dissolved in 2 mL Solvable™ (Perkin Elmer 6NE9100) for up to 1 g of tissue. For a large section of skin and other organs, 4 or 6 mL were added. Vials were incubated in a 60° C. water bath for 18-22 hours, then removed and allowed to cool to room temperature. […]

TMPRSS2 [3] = target: T1, TMPRSS2; experiment: Cellular TMPRSS2 inhibition assay in Calu3 cells; assay type: cell-based; parameters: endogenous in cells; host or cells: Calu3 (Calu-3) cells; conditions: Calu3 cells
Method: as §1

TMPRSS2 [4] = target: TMPRSS2 (UniProt O15393 1-492, limits assumed); experiment: cell-based or functional assay
Sequence of TMPRSS2 (UniProt O15393 1-492, limits assumed) (O15393 whole entry): as above

Molecule: Peptide 2: naturally occurring cyclic peptide (theta defensin), SEQ ID NO. 2, FIG. 1A (GVCRCLCRRGVCRCLCRR; cyclic; listed as Macaca mulatta)
- SARS-CoV-2 viral replication (N gene expression relative to ACTB) (SARS-CoV-2): highly effective in blocking viral replication

Molecule: Peptide 5: naturally occurring cyclic peptide (theta defensin), SEQ ID NO. 5, FIG. 1B (GICRCLCRRGVCRCICVL; not fully specified (bridges); also: cyclic; listed as Macaca mulatta)
- SARS-CoV-2 viral replication (N gene expression relative to ACTB) (SARS-CoV-2): no apparent antiviral effect; also recorded: inactive
- TMPRSS2 inhibitory activity (TMPRSS2 [1]; highest concentration tested (50 μg/mL), cell line not stated): no TMPRSS2 inhibitory activity

Molecule: ^14C-Peptide 1: created by substituting the natural glycine residue on position 1 of the cyclic peptide with a 14C labeled glycine ([14C‑Gly]FCRCLCRRGVCRCICTR; not fully specified (bridges); also: cyclic; listed as Macaca mulatta)
- tissue distribution (density of 14C) ([2]; 1 h after i.v. administration): highest density measured in the liver, followed by the kidney
- 14C counts recovered in urine ([2]; single i.v. dose equivalent to 5 mg/kg, 24 h): 7% and 8.5%

Molecule: Peptide 3: naturally occurring cyclic peptide (theta defensin), SEQ ID NO. 3, FIG. 1A (GFCRCICTRGFCRCICTR; cyclic; listed as Macaca mulatta)
- inhibition of TMPRSS2 (TMPRSS2 [3]): similarly inhibited TMPRSS2
- inhibition of TMPRSS2 (TMPRSS2 [1]; Caco-2 cells, 0 to 50 μg/ml, FIG. 10): higher than Peptide 1

B1: Peptide 1 (SEQ ID NO. 1) (peptide)
peptide: cyclo(GFCRCLCRRGVCRCICTR)
modifications: disulfide (positions not given here); also: three disulfide bonds, pairing not given here
- IC50 of enzyme inhibition (cleavage of Boc-Leu-Gly-Arg-AMC by cells) (TMPRSS2 [4]): 6.5 to 8 µg/mL
